Test results published in patent US8840891 (RSR, dated 2014).
Where two headings read alike, the source gives them in different places.

How the values were obtained:
[1] = biological target: human TSHR with activating mutation A623I, on CHO cells (human) (UniProt P16473); assay: cell-based or functional assay
[2] = biological target: human TSHR, wild type, expressed on CHO cells (human) (UniProt P16473); assay: cell-based or functional assay
[3] = biological target: human TSHR, wild type, expressed on CHO cells (human) (UniProt P16473); assay: cell-based or functional assay; remark: listed apart in the source
[4] = biological target: TSHR with Asp160 mutated to Lysine (human) (UniProt P16473); assay: cell-based or functional assay
[5] = biological target: wild type human TSHR (human) (UniProt P16473); assay: cell-based or functional assay
[6] = biological target: T1, TSHR coated onto tubes (human, UniProt P16473 21-764, limits assumed); assay: TSHR coated tubes, competitor 125I-M22 IgG
T1 construct: whole entry named; also called TSHR coated tubes; thyrotropin receptor

[7] = biological target: human TSHR (wild type) expressed in CHO cells (human) (UniProt P16473); assay: cell-based or functional assay
[8] = biological target: human TSHR expressed on CHO cells (human) (UniProt P16473); assay: cell-based or functional assay
[9] = biological target: wild type human TSHR (human) (UniProt P16473); assay: cell-based or functional assay; remark: listed apart in the source
[10] = biological target: T1, TSHR coated onto tubes; assay: TSHR coated tubes, competitor 125I-TSH
[11] = biological target: T1, TSHR coated onto tubes; assay: TSHR coated tubes, competitor 125I-5C9 IgG

## 9D33 IgG, mouse monoclonal antibody to the TSHR with blocking activity
[1]
  basal cyclic AMP (buffer only 36.89); 9D33 IgG 0.001 µg/mL: 29.6 pmol/mL
  basal cyclic AMP (buffer only 36.89); 9D33 IgG 0.01 µg/mL: 27.6 pmol/mL
  basal cyclic AMP (buffer only 36.89); 9D33 IgG 0.1 µg/mL: 31.8 pmol/mL
  basal cyclic AMP (buffer only 36.89); 9D33 IgG 1 µg/mL: 40.1 pmol/mL
[2]
  % inhibition of basal cyclic AMP production; Exp 3; 9D33 IgG 0.001 µg/mL: 12%
  cyclic AMP; Exp 1; 9D33 1 µg/mL + TSH 3 ng/mL: 28.7 pmol/mL
  cyclic AMP; Exp 1; 9D33 10 µg/mL + TSH 3 ng/mL: 23.8 pmol/mL
  cyclic AMP; Exp 1; 9D33 10 µg/mL only: 2.9 pmol/mL
  cyclic AMP; Exp 2; 9D33 1 µg/mL + TSH 3 ng/mL: 19 pmol/mL
  cyclic AMP; Exp 2; 9D33 10 µg/mL + TSH 3 ng/mL: 9.5 pmol/mL
  cyclic AMP; Exp 2; 9D33 10 µg/mL only: 1.6 pmol/mL
  cyclic AMP; Exp 3; 9D33 0.01 µg/mL + TSH 3 ng/mL: 47.1 pmol/mL
  cyclic AMP; Exp 3; 9D33 0.1 µg/mL + TSH 3 ng/mL: 35.1 pmol/mL
  cyclic AMP; Exp 3; 9D33 1 µg/mL + TSH 3 ng/mL: 27.8 pmol/mL
  cyclic AMP; Exp 3; 9D33 10 µg/mL + TSH 3 ng/mL: 13.5 pmol/mL
  cyclic AMP; Exp 3; 9D33 100 µg/mL + TSH 3 ng/mL: 10.5 pmol/mL
  cyclic AMP; Exp 3; 9D33 100 µg/mL only: 1.14 pmol/mL
  cyclic AMP; Exp 4; 9D33 0.1 µg/mL + TSH 0.3 ng/mL: 20.2 pmol/mL
  cyclic AMP; Exp 4; 9D33 1 µg/mL + TSH 0.3 ng/mL: 9.01 pmol/mL
  cyclic AMP; Exp 4; 9D33 10 µg/mL + TSH 0.3 ng/mL: 4.23 pmol/mL
  cyclic AMP; Exp 4; 9D33 100 µg/mL + TSH 0.3 ng/mL: 3.53 pmol/mL
  cyclic AMP; Exp 4; 9D33 100 µg/mL only: 0.99 pmol/mL
  cyclic AMP; Exp 5; 9D33 0.1 µg/mL + TSH 0.3 ng/mL: 14.7 pmol/mL
  cyclic AMP; Exp 5; 9D33 1 µg/mL + TSH 0.3 ng/mL: 6.38 pmol/mL
  cyclic AMP; Exp 5; 9D33 5 µg/mL + TSH 0.3 ng/mL: 3.71 pmol/mL
  cyclic AMP; Exp 5; 9D33 10 µg/mL + TSH 0.3 ng/mL: 3.57 pmol/mL
  cyclic AMP; Exp 5; 9D33 10 µg/mL only: 2.07 pmol/mL
[3]
  cyclic AMP; Exp 1; 9D33 0.01 µg/mL + M22 3 ng/mL: 47.5 pmol/mL
  cyclic AMP; Exp 1; 9D33 0.1 µg/mL + M22 3 ng/mL: 27.6 pmol/mL
  cyclic AMP; Exp 1; 9D33 1 µg/mL + M22 3 ng/mL: 5.25 pmol/mL
  cyclic AMP; Exp 1; 9D33 10 µg/mL + M22 3 ng/mL: 2.5 pmol/mL
  cyclic AMP; Exp 1; 9D33 100 µg/mL + M22 3 ng/mL: 2.13 pmol/mL
  cyclic AMP; Exp 1; 9D33 100 µg/mL only: 1.51 pmol/mL
  cyclic AMP; Exp 2; 9D33 0.001 µg/mL + M22 3 ng/mL: 79.1 pmol/mL
  cyclic AMP; Exp 2; 9D33 0.01 µg/mL + M22 3 ng/mL: 60.2 pmol/mL
  cyclic AMP; Exp 2; 9D33 0.1 µg/mL + M22 3 ng/mL: 38.7 pmol/mL
  cyclic AMP; Exp 2; 9D33 1 µg/mL + M22 3 ng/mL: 6.03 pmol/mL
  cyclic AMP; Exp 2; 9D33 10 µg/mL + M22 3 ng/mL: 0.67 pmol/mL
  cyclic AMP; Exp 2; 9D33 100 µg/mL + M22 3 ng/mL: 1.42 pmol/mL
  cyclic AMP; Exp 2; 9D33 100 µg/mL only: 1.76 pmol/mL
  cyclic AMP; Exp 3; 9D33 0.001 µg/mL + M22 0.3 ng/mL: 12.8 pmol/mL
  cyclic AMP; Exp 3; 9D33 0.01 µg/mL + M22 0.3 ng/mL: 15.2 pmol/mL
  cyclic AMP; Exp 3; 9D33 0.1 µg/mL + M22 0.3 ng/mL: 5.38 pmol/mL
  cyclic AMP; Exp 3; 9D33 1 µg/mL + M22 0.3 ng/mL: 0.83 pmol/mL
  cyclic AMP; Exp 3; 9D33 10 µg/mL + M22 0.3 ng/mL: 0.97 pmol/mL
  cyclic AMP; Exp 3; 9D33 100 µg/mL + M22 0.3 ng/mL: 1.03 pmol/mL
  cyclic AMP; Exp 3; 9D33 100 µg/mL only: 0.88 pmol/mL
  cyclic AMP; Exp 4; 9D33 0.001 µg/mL + M22 0.3 ng/mL: 43.2 pmol/mL
  cyclic AMP; Exp 4; 9D33 0.01 µg/mL + M22 0.3 ng/mL: 38.9 pmol/mL
  cyclic AMP; Exp 4; 9D33 0.1 µg/mL + M22 0.3 ng/mL: 27.6 pmol/mL
  cyclic AMP; Exp 4; 9D33 1 µg/mL + M22 0.3 ng/mL: 2.66 pmol/mL
  cyclic AMP; Exp 4; 9D33 10 µg/mL + M22 0.3 ng/mL: 1.25 pmol/mL
  cyclic AMP; Exp 4; 9D33 100 µg/mL + M22 0.3 ng/mL: 2 pmol/mL
  cyclic AMP; Exp 4; 9D33 100 µg/mL only: 2.38 pmol/mL

## M22 (antibody)
[4]
  Mutated/wild type (%); M22 only: 85%
  cyclic AMP; M22 3 ng/mL only (fmol/cell well): 14300
  cyclic AMP; M22 3 ng/mL only (repeat determination) (fmol/cell well): 18900
[5]
  cyclic AMP; M22 3 ng/mL only (fmol/cell well): 16800
  cyclic AMP; M22 3 ng/mL only (repeat determination) (fmol/cell well): 16700

B1: 9D33 IgG (antibody, V domains shown)
VH: DVQIQQPGTELVKPGASVRLSCKASGYTFTTYWMHWVKQRPGQGLEWIGEIDPSDSYTNYNQKFKGKATLTVDKSSSTAYMHLSSLTSEDSAVYYCSRNYGSGYYFDYWGQGTTLTVSS
VL: GVEMTQSPAIMSASPGEKVTMTCSASSSVSYMHWYQQKSGTSPKRWIYDTSKLASGVPARFSGSGSGTSYSLTISSMETEDAATYYCQQWSSNPWTFGGGTKLEIK
[6]
  % inhib of 125I-M22 IgG binding at 0.01 µg/mL: 13%
  % inhib of 125I-M22 IgG binding at 0.1 µg/mL: 27%
  % inhib of 125I-M22 IgG binding at 1 µg/mL: 48%
  % inhib of 125I-M22 IgG binding at 10 µg/mL: 60%
  % inhib of 125I-M22 IgG binding at 100 µg/mL: 61%
[7]
  cyclic AMP production; 9D33 IgG 100 µg/mL + M22 Fab 3 ng/mL (fmol/cell well): 1050
  cyclic AMP production; 9D33 IgG 100 µg/mL + pTSH 3 ng/mL (fmol/cell well): 2220
  cyclic AMP production; 9D33 IgG 100 µg/mL only (fmol/cell well): 626
[8]
  Cyclic AMP, serum T1 + 0.001 µg/mL 9D33 IgG (fmol/cell well): 21600
  Cyclic AMP, serum T1 + 0.01 µg/mL 9D33 IgG (fmol/cell well): 19900
  Cyclic AMP, serum T1 + 0.1 µg/mL 9D33 IgG (fmol/cell well): 17900
  Cyclic AMP, serum T1 + 1 µg/mL 9D33 IgG (fmol/cell well): 4990
  Cyclic AMP, serum T1 + 10 µg/mL 9D33 IgG (fmol/cell well): 1460
  Cyclic AMP, serum T3 + 0.001 µg/mL 9D33 IgG (fmol/cell well): 12200
  Cyclic AMP, serum T3 + 0.01 µg/mL 9D33 IgG (fmol/cell well): 12200
  Cyclic AMP, serum T3 + 0.1 µg/mL 9D33 IgG (fmol/cell well): 12000
  Cyclic AMP, serum T3 + 1 µg/mL 9D33 IgG (fmol/cell well): 7380
  Cyclic AMP, serum T3 + 10 µg/mL 9D33 IgG (fmol/cell well): 4260
  Cyclic AMP, serum T6 + 0.001 µg/mL 9D33 IgG (single determination) (fmol/cell well): 10300
  Cyclic AMP, serum T6 + 0.01 µg/mL 9D33 IgG (fmol/cell well): 10300
  Cyclic AMP, serum T6 + 0.1 µg/mL 9D33 IgG (fmol/cell well): 8700
  Cyclic AMP, serum T6 + 1 µg/mL 9D33 IgG (fmol/cell well): 5450
  Cyclic AMP, serum T6 + 10 µg/mL 9D33 IgG (fmol/cell well): 2260
  Cyclic AMP, serum T19 + 0.001 µg/mL 9D33 IgG (fmol/cell well): 7090
  Cyclic AMP, serum T19 + 0.01 µg/mL 9D33 IgG (mean of duplicate) (fmol/cell well): 5760
  Cyclic AMP, serum T19 + 0.1 µg/mL 9D33 IgG (mean of duplicate) (fmol/cell well): 2390
  Cyclic AMP, serum T19 + 1 µg/mL 9D33 IgG (fmol/cell well): 404
  Cyclic AMP, serum T19 + 10 µg/mL 9D33 IgG (fmol/cell well): 448
  Cyclic AMP, serum T20 + 0.001 µg/mL 9D33 IgG (fmol/cell well): 7510
  Cyclic AMP, serum T20 + 0.01 µg/mL 9D33 IgG (fmol/cell well): 5390
  Cyclic AMP, serum T20 + 0.1 µg/mL 9D33 IgG (fmol/cell well): 5360
  Cyclic AMP, serum T20 + 1 µg/mL 9D33 IgG (mean of duplicate) (fmol/cell well): 980
  Cyclic AMP, serum T20 + 10 µg/mL 9D33 IgG (fmol/cell well): 204
[9]
  cyclic AMP; 100 µg/mL 9D33 IgG only (fmol/cell well): 534
  cyclic AMP; T21 + 0.001 µg/mL 9D33 IgG (fmol/cell well): 10200
  cyclic AMP; T21 + 0.01 µg/mL 9D33 IgG (fmol/cell well): 10800
  cyclic AMP; T21 + 0.1 µg/mL 9D33 IgG (fmol/cell well): 8720
  cyclic AMP; T21 + 1 µg/mL 9D33 IgG (fmol/cell well): 1380
  cyclic AMP; T21 + 10 µg/mL 9D33 IgG (fmol/cell well): 605
  cyclic AMP; T21 + 100 µg/mL 9D33 IgG (fmol/cell well): 442
[10]
  % inhib of 125I-TSH binding at 0.01 µg/mL: 8%
  % inhib of 125I-TSH binding at 0.1 µg/mL: 31%
  % inhib of 125I-TSH binding at 1 µg/mL: 55%
  % inhib of 125I-TSH binding at 10 µg/mL: 65%
  % inhib of 125I-TSH binding at 100 µg/mL: 69%
[11]
  % inhib of 125I-5C9 IgG binding at 0.01 µg/mL: 13%
  % inhib of 125I-5C9 IgG binding at 0.1 µg/mL: 29%
  % inhib of 125I-5C9 IgG binding at 1 µg/mL: 48%
  % inhib of 125I-5C9 IgG binding at 10 µg/mL: 60%
  % inhib of 125I-5C9 IgG binding at 100 µg/mL: 70%
